Key:
[1] = target: T1, DR52b (Homo sapiens, UniProt P01903+P79483); assay: DR52b competition binding assay with biotin-labeled HA306-318 peptide; conditions: relative to untagged peptide
T1 construct: made in house; host or cells: D.Mel-2 (Drosophila) cells, pMT/BiP/V5-His A vector, secreted, purified on L243 anti-HLA-DR column
Experimental: (§1) FIG. 16. DR52b binding capacity of His-tagged and untagged ESO peptides and recognition by specific clones. (A) The capacity of His-tagged and untagged ESO peptides to bind to DR52b was assessed in a competition assay with a biotin-labeled HA-derived peptide. ESO and control peptides were incubated overnight at 37° C., at the indicated concentrations, with recombinant empty DR52b protein (5 μg) and biotin-labeled HA306-318 peptide (0.2 μM). The quantity of DR52b molecules containing the biotin-labeled peptide in each test-point was assessed by ELISA using anti-HLA-DR (clone L243) coated plates and alkaline phosphatase-labeled streptavidin. (B) ESO specific clones were incubated with DR52b^+ EBV-B cells and ESO peptides, at the indicated concentrations, and IFN-γ was measured by ELISA in 24 hrs culture supernatants. Results are shown for one clone representative of 3 clones tested.
Because our new approach involves the addition of a His-tag to the ESO peptides, it was important to address the effect of this modification on peptide binding to class II molecules and recognition by specific CD4^+ T cells. With this aim we assessed the relative efficiency of untagged and His-tagged ESO peptides to bind to DR52b using a previously described competition assay (13).

[2] = test system: ESO specific clones; assay: Recognition of His-tagged and untagged ESO peptides by specific clones with DR52b+ EBV-B cells (IFN-γ ELISA); format: cell-based, human; conditions: 24 hrs
Experimental: as §1, with “tested. DR52b^+ ESO-specific CD4^+ T cell clones or polyclonal cultures were stimulated in the absence or presence of ESO peptides (2 μM) or PMA (100 ng/ml) and ionomycin (1 μg/ml), as indicated, and cytokine production was assessed in a standard 4 hrs intracellular cytokine staining assay using mAb specific for IFN-γ, TNF-α, IL-2, IL-4, IL-10 (BD Biosciences) and IL-17 (eBiosciences), as previously described (9, 34). […]” for “tested.”

Row | Substance | effect of His-tag on peptide binding to DR52b [1] | recognition by specific CD4+ T cells relative to untagged peptide [2]
1 | His-tagged ESO119-143: ESO119-143 extended at the N-terminus by 6 His residues and a linker (Ser-Gly-Ser-Gly) | did not significantly modify | 
2 | His-tagged ESO123-137: ESO123-137 extended at the N-terminus by 6 His residues and a linker (Ser-Gly-Ser-Gly) | did not significantly modify | moderately improved efficiency

— patent US20130029358A1, “IMMUNODOMINANT MHC DR52B RESTRICTED NY-ESO-1 EPITOPES, MHC CLASS II MONOMERS AND MULTIMERS, AND USES THEREOF” (LUDWIG INSTITUTE FOR CANCER RESEARCH LTD., priority 2010, published 2013)
